Source: paper PMC11096469
Values belong to the substance of their own block, whether it stands above or below them.

What was measured:
[1] = target: C_(γ1-3) chain (VH-deleted human IgG1 heavy chain) (human); assay: non-reducing SDS-PAGE with immunoblot; culture supernatants of HEK293 transfectants 48 h after transfection; 4-20% gels, reducing and non-reducing; probed with anti-human IgG-Fc and anti-human Cκ; covalent assembly
[2] = target: C_(γ2-3) chain (Fc fragment containing the hinge region) (human); assay: as above
[3] = target: Cκ chain (Vκ-deleted human kappa light chain) (human) (UniProt P01834); assay: non-reducing SDS-PAGE with immunoblot; culture supernatants of HEK293-BiP cells transfected with LCs alone, 48 h after transfection; reducing and non-reducing gels

stoichiometry N [1]: 2
Substance: C_(γ1-3) chain (VH-deleted human IgG1 heavy chain) (domain or fragment)

stoichiometry N [2]: 2
Substance: C_(γ2-3) chain (Fc fragment containing the hinge region) (domain or fragment)

stoichiometry N [3]: 2
Substance: Cκ chain (Vκ-deleted human kappa light chain) (from UniProt P01834 1-107) (domain or fragment)
